Results on 1 substance are retold here after patent US20060019314A1.

The target of one experiment is FOXO3a (human) (UniProt O43524). Nature of the experiment: cell-based or functional assay.
The next experiment has as its target FOXO3a-TM (human) (UniProt O43524). The experiment in a line: cell-based or functional assay.

In the case of human Smek1 (from UniProt Q6IN85 1-833), the synthetic FOXO luciferase reporter (three tandem IRS elements), HepG2 cells (percent increase) with FOXO3a (human) came to 50. In the experiment with FOXO3a-TM (human), this substance displayed a synthetic FOXO luciferase reporter (three tandem IRS elements), 293 cells of 12 fold and a synthetic FOXO luciferase reporter (three tandem IRS elements), HepG2 cells of 2 fold.
